Tests used:
[1] = biological target: human copper chaperone for SOD1 domain II–III construct (human); experiment: SEC-MALS; SEC and light scattering–derived molecular weights of hCCS truncations at micromolar concentration
[2] = biological target: human superoxide dismutase-1 as used in the SEC complexation assays (variant not stated) (human) (UniProt P00441); experiment: SEC; complexation of hCCS dimer interface variants with hSOD1 followed over a time course from 8 minutes to 4 days; Agilent BioSec Advance 300 Å 4.6 × 300 mm column; heterodimer peak height plotted
[3] = biological target: the molecule itself; experiment: SEC; size exclusion chromatograms of hCCS alone (wild type and Ala231Gly); relative amounts of dimeric and monomeric species

| stoichiometry N [1] | fold slower complexation than with wild-type hCCS [2] | Molecule | binding result [3] |
| --- | --- | --- | --- |
| 2 | – | human copper chaperone for SOD1 domain II–III construct (domain or fragment) | – |
| – | > 300 fold | human copper chaperone for SOD1 Ala231Gly (natural protein, UniProt O14618 1-274, looked up, also called Ala231Gly hCCS; A231G hCCS; source: expressed and purified as previously described [29,35,42]) MASDSGNQGTLCTLEFAVQMTCQSCVDAVRKSLQGVAGVQDVEVHLEDQMVLVHTTLPSQEVQALLEGTGRQAVLKGMGSGQLQNLGAAVAILGGPGTVQGVVRFLQLTPERCLIEGTIDGLEPGLHGLHVHQYGDLTNNCNSCGNHFNPDGASHGGPQDSDRHRGDLGNVRADADGRAIFRMEDEQLKVWDVIGRSLIIDEGEDDLGRGGHPLSKITGNSGERLACGIIGRSAGLFQNPKQICSCDGLTIWEERGRPIAGKGRKESAQPPAHL | binds |
| – | – | wild-type human copper chaperone for SOD1 (natural protein, UniProt O14618 1-274, looked up, human copper chaperone for SOD1 (hCCS), wild type; also called hCCS; wild-type hCCS; source: expressed and purified as previously described [29,35,42]) MASDSGNQGTLCTLEFAVQMTCQSCVDAVRKSLQGVAGVQDVEVHLEDQMVLVHTTLPSQEVQALLEGTGRQAVLKGMGSGQLQNLGAAVAILGGPGTVQGVVRFLQLTPERCLIEGTIDGLEPGLHGLHVHQYGDLTNNCNSCGNHFNPDGASHGGPQDSDRHRGDLGNVRADADGRAIFRMEDEQLKVWDVIGRSLIIDEGEDDLGRGGHPLSKITGNSGERLACGIIARSAGLFQNPKQICSCDGLTIWEERGRPIAGKGRKESAQPPAHL | binds |
